From patent US6677433B2 (The Regents of the University of California, priority 2001, dated 2004)

How the values were obtained:
trypsin [1] = target: T1, trypsin (Bos taurus, UniProt P00760); assay: Trypsin inhibition assay after reduction of the inhibitors; type: biochemical
T1 construct: purchased Sigma Chemical Co. (St. Louis, Mo.) T8640
T1 sequence (P00760 24-246): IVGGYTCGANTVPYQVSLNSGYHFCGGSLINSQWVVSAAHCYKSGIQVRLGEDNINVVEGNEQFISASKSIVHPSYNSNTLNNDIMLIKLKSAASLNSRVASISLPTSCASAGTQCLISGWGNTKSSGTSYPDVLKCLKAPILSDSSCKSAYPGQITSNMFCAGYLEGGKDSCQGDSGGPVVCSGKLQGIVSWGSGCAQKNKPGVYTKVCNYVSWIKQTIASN
Experimental: (§1) Unless indicated, the reduction of the trypsin inhibitors (0.4 mg/ml) was carried out in 0.1 ml of 20 mM sodium phosphate buffer, pH 7.9 containing 10 mM EDTA at 30° C. for 2 hours. The concentrations of thioredoxin, NTR, and NADPH were 0.024 mg/ml, 0.02 mg/ml, and 0.25 mM, respectively. […] Following reduction, aliquots of the inhibitor mixture were withdrawn either for determination of trypsin inhibitory activity or proteolytic susceptibility. In the subtilisin tests, the inhibitor mixture (50 μl) was directly mixed with subtilisin and incubated at room temperature for 1 hour. With the wheat protease preparation, the pH of the inhibitor mixture (50 μL) was first adjusted to 4.7 by mixing with 35 μl of 200 mM sodium acetate, pH 4.6; 10 μl of the wheat protease preparation was then added and incubation was continued for 2 hours at 37° C. To stop digestion with subtilisin, 2 μl of 100 mM phenylmethylsulfonyl fluoride (PMSF) and 10 μl of 10% SDS were added to the digestion mixture. With the plant protease preparation, digestion was stopped by adding an equal volume of SDS sample buffer [0.125 M Tris-HCl, pH 6.8, 4% (w/v) SDS, 20% (v/v) glycerol, 10% (v/v) β-mercaptoethanol, and 0.02% (w/v) bromophenol blue]. Proteolytic products were analyzed by electrophoresis with 12% or 16% SDS polyacrylamide slab gels (Laemmli, 1970). The dried slab gels were scanned with a laser densitometer (Pharmacia-LKB UltraScan XL) and the peak area of the KTI or BBTI protein band was obtained by integration with a Pharmacia GelScan XL software program.
(§2) Thioredoxin and NTR were assayed as previously described by Florencio et al. (1988). Trypsin activity was measured in 50 mM Tris-HCl, pH 7.9, by following the increase in absorbance at 253 nm with N-benzoyl-L-arginine ethyl ester as substrate (Mundy et al., 1984) or by the release of azo dye into the trichloroacetic acid (TCA)-soluble fraction from azocasein substrate (see below). For trypsin inhibition assays, trypsin (5 to 10 μg) was preincubated with appropriate amounts of KTI or BBTI for 5 minutes at room temperature in 50 mM Tris-HCl, pH 7.9 and proteolytic activity was then determined. While the two substrates yielded similar data, results are presented with only one substrate.
To determine the consequence of reduction by thioredoxin, the trypsin inhibitory activity of the oxidized and reduced forms of KTI and BBTI was compared. […] Similar results were obtained with DTT, a nonphysiological substitute for thioredoxin, and with thioredoxin reduced by lipoic acid, a naturally occurring dithiol.

trypsin [2] = target: T1, trypsin; assay: Heat stability of trypsin inhibitors (trypsin activity, azocasein); type: biochemical
Experimental: as §1, §2
The question arises as to whether reduction by thioredoxin yields similar results. The results as shown in TABLE XII provide a positive answer to this question. When heated at 80° C. for 15 minutes, the thioredoxin-reduced form of KTI completely lost its ability to inhibit trypsin, whereas its oxidized counterpart retained about half of the original activity (Table XII). […] Nonetheless, as with KTI, the reduced form of BBTI was fully inactivated by heat (Table XII). […]

Fructose Bisphosphatase = target: T2, Fructose Bisphosphatase (Spinacia oleracea, UniProt P22418); assay: Activation of chloroplast fructose bisphosphatase by thioredoxin-reduced proteins; type: biochemical, spinach; settings: standard DTT assay, 1 μg E. coli thioredoxin, 20 μg protein; corrected for thioredoxin alone
T2 construct: fructose-1,6-bisphosphatase (FBPase) were purified from leaves of corn (Jacquot, J.-P. et al. (1981), Plant Physiol. 68:300-304) and spinach; from tissue; host or cells: spinach leaves
T2 sequence (P22418 58-415): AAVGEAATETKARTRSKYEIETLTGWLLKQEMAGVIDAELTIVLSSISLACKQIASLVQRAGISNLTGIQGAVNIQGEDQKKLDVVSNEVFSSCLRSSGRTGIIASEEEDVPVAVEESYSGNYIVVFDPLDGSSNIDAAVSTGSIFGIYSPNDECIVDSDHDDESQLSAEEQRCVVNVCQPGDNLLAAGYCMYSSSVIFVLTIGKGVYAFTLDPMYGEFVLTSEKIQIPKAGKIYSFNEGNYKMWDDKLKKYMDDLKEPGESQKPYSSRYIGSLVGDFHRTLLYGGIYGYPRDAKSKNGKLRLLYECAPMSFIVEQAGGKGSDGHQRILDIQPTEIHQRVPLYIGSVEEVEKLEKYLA
Experimental: The NADP-MDH, FBPase, NTR and Thioredoxin h assay methods were according to Florencio, F. J. et al. (1988), Arch. Biochem. Biophys. 266:496-507 with slight modifications as indicated. For enzyme activation assays, the preincubation time was 20 min unless specified otherwise.
The capability to replace a specific thioredoxin in the activation of chloroplast enzymes is one test for the ability of thiol groups of a given protein to undergo reversible redox change. […] A case in point is purothionin which, when reduced by thioredoxin h activates chloroplast FBPase (Wada, K. et al. (1981), FEBS Lett. 124:237-240, and Johnson, T. C. et al. (1987), Plant Physiol. 85:446-451). The FBPase, whose physiological activator is thioredoxin f, is unaffected by thioredoxin h. In this Example, the ability of cystine-rich proteins to activate FBPase as well as NADP-MDH was tested as set forth above. […]
The Wada et al., 1981 protocol was used for assaying NADP-malate dehydrogenase and fructose 1,6 bisphosphatase in the presence of thioredoxin and 2S protein. […] The 2S protein was monitored during purification by mBBr/SDS-polyacrylamide gel electrophoresis following its reduction by dithiothreitol and E. coli thioredoxin (Crawford et al., 1989; Kobrehel et al., 1991).

B1: Soybean Kunitz: Kunitz soybean trypsin inhibitor (protein, UniProt P01070 25-205, looked up)
Trypsin inhibitor A: DFVLDNEGNPLENGGTYYILSDITAFGGIRAAPTGNERCPLTVVQSRNELDKGIGTIISSPYRIRFIAEGHPLSLKFDSFAVIMLCVGIPTEWSVVEDLPEGPAVKIGENKDAMDGWFRLERVSDDEFNNYKLVFCPQQAEDDKCGDIGISIDHDDGTRRLVVSKNKPLVVQFQKLDKESL
- increase in trypsin activity effected by the NADP/thioredoxin system (trypsin [1]): 3 fold
- Relative Trypsin Activity, inhibitor Reduced by DTT (trypsin [1]; DTT 1 mM, 30° C., 1 hour, no inhibitor = 100): 68.6
- Relative Trypsin Activity, inhibitor Reduced by NTS (trypsin [1]; E. coli NTS, 30° C., 2 hours, no inhibitor = 100): 55.6
- Relative Trypsin Activity, inhibitor Reduced by LA/Trx h (trypsin [1]; lipoic acid 0.4 mM and wheat thioredoxin h, 30° C., 1 hour): 40.5
- Relative Trypsin Activity, inhibitor Oxidized (trypsin [1]; no inhibitor = 100, N-benzoyl-L-arginine ethyl ester): 17.0
- Relative Trypsin Activity, inhibitor heated 15 min at 80° C., Oxidized (trypsin [2]): 52.3
- Relative Trypsin Activity, inhibitor heated 15 min at 80° C., Reduced (trypsin [2]): 98.7
- Relative Trypsin Activity, inhibitor unheated, Reduced (trypsin [2]): 76.4
- Relative Trypsin Activity, inhibitor unheated, Oxidized (trypsin [2]; no inhibitor = 100, azocasein): 26.6
- ACTIVITY, FBPase (Fructose Bisphosphatase): 0 nkat/mg
